Among the data in the array DNA melting data of Ke et al. are Tm values, retold here.

A word on the Tm: it is the temperature at which the thermal transition is half complete.

The data set can be described thus: melting temperature; melt of duplexes. The conditions noted are these: sodium 0.0675 M; strand 1 µM.
With “CGACGTGCGCTATGTGCTG+CAGCACATCCGGCACGTCG ((((((((...((((((((+))))))))...))))))))”, the Tm is 48.1 °C. In the case of “CGACGTGCCGGATGTGCTG+CAGCACATCATGCACGTCG ((((((((..(((((((((+)))))))))..))))))))”, the Tm was 54.8 °C.

As to “CGACGTGCATTATGTGCTG+CAGCACATCGTGCACGTCG (((((((((..((((((((+))))))))..)))))))))”, the Tm came out at 47.3 °C. “CGACGTGCATGATGTGCTG+CAGCACATGCAGCACGTCG ((((((((...((((((((+))))))))...))))))))”: the Tm is 50.4 °C. For “CGACGTGCCCAATGTGCTG+CAGCACATCGGGCACGTCG ((((((((((.((((((((+)))))))).))))))))))” the value was 58.9 °C; for “CGACGTGCGATATGTGCTG+CAGCACATTAGGCACGTCG ((((((((...((((((((+))))))))...))))))))”, 50.8 °C.

As to “CGACGTGCGGTATGTGCTG+CAGCACATCCCGCACGTCG ((((((((((.((((((((+)))))))).))))))))))”, the Tm stood at 59.9 °C. Consider “CGACGTGCCCCATGTGCTG+CAGCACATCCCGCACGTCG ((((((((...((((((((+))))))))...))))))))”, for which the Tm was determined as 46.2 °C. Take “CGACGTGCGGCATGTGCTG+CAGCACATGCAGCACGTCG ((((((((.((((((((((+)))))))))).))))))))”: the Tm turned out to be 63.1 °C. For “CGACGTGCTTGATGTGCTG+CAGCACATCCAGCACGTCG (((((((((.(((((((((+))))))))).)))))))))” the value was 57.1 °C; for “CGACGTGCAACATGTGCTG+CAGCACATTGGGCACGTCG ((((((((...((((((((+))))))))...))))))))”, 50.1 °C; for “CGACGTGCTAAATGTGCTG+CAGCACATTAAGCACGTCG (((((((((.(((((((((+))))))))).)))))))))”, 55.8 °C. With “CGACGTGCCCCATGTGCTG+CAGCACATCAAGCACGTCG ((((((((...((((((((+))))))))...))))))))”, the Tm amounted to 47.3 °C.

Consider “CGACGTGCTGCATGTGCTG+CAGCACATTGGGCACGTCG ((((((((...((((((((+))))))))...))))))))”, for which the Tm was found to be 50.1 °C.

Turning to “CGACGTGCATGATGTGCTG+CAGCACATTGAGCACGTCG ((((((((...((((((((+))))))))...))))))))”, the Tm came out at 50.7 °C. For “CGACGTGCATAATGTGCTG+CAGCACATTTTGCACGTCG (((((((((.(((((((((+))))))))).)))))))))” the value was 56.1 °C; for “CGACGTGCATAATGTGCTG+CAGCACATCCCGCACGTCG ((((((((...((((((((+))))))))...))))))))”, 46.9 °C. On to “CGACGTGCTTGATGTGCTG+CAGCACATGATGCACGTCG ((((((((.(.((((((((+)))))))).).))))))))”, for which the midpoint of thermal melting (Tm) amounted to 51.6 °C. Turning to “CGACGTGCAACATGTGCTG+CAGCACATACAGCACGTCG ((((((((...((((((((+))))))))...))))))))”, the Tm amounted to 47.9 °C.

As for “CGACGTGCGCTATGTGCTG+CAGCACATAGGGCACGTCG ((((((((.((((((((((+)))))))))).))))))))”, the Tm came out at 59.6 °C. Turning to “CGACGTGCGAGATGTGCTG+CAGCACATTGTGCACGTCG ((((((((...((((((((+))))))))...))))))))”, the Tm was 49.7 °C. As to “CGACGTGCTTTATGTGCTG+CAGCACATAGGGCACGTCG ((((((((..(((((((((+)))))))))..))))))))”, the Tm stood at 51.1 °C. For “CGACGTGCCGCATGTGCTG+CAGCACATGTAGCACGTCG ((((((((..(((((((((+)))))))))..))))))))” the value was 54.4 °C. For the substance “CGACGTGCTTCATGTGCTG+CAGCACATCACGCACGTCG ((((((((.(.((((((((+)))))))).).))))))))”, the Tm amounted to 47.8 °C. On to “CGACGTGCTCGATGTGCTG+CAGCACATGTAGCACGTCG (((((((((..((((((((+))))))))..)))))))))”, for which the Tm was found to be 52.3 °C. As to “CGACGTGCACTATGTGCTG+CAGCACATCGTGCACGTCG ((((((((((.((((((((+)))))))).))))))))))”, the Tm was found to be 51.4 °C. For “CGACGTGCAATATGTGCTG+CAGCACATTGCGCACGTCG ((((((((...((((((((+))))))))...))))))))” the value was 50 °C; for “CGACGTGCCTAATGTGCTG+CAGCACATATAGCACGTCG ((((((((...((((((((+))))))))...))))))))”, 49.6 °C. Regarding “CGACGTGCTCAATGTGCTG+CAGCACATGGAGCACGTCG ((((((((((.((((((((+)))))))).))))))))))”, the Tm is 59.5 °C.

As for “CGACGTGCAGCATGTGCTG+CAGCACATGCTGCACGTCG (((((((((((((((((((+)))))))))))))))))))”, the Tm turned out to be 66.1 °C.

As for “CGACGTGCAGAATGTGCTG+CAGCACATTACGCACGTCG ((((((((..(((((((((+)))))))))..))))))))”, the Tm was found to be 52.7 °C.

“CGACGTGCCGTATGTGCTG+CAGCACATCGTGCACGTCG ((((((((...((((((((+))))))))...))))))))”: the Tm worked out at 51 °C. For “CGACGTGCGATATGTGCTG+CAGCACATGGCGCACGTCG (((((((((..((((((((+))))))))..)))))))))” the value was 57.4 °C; for “CGACGTGCGTAATGTGCTG+CAGCACATAAAGCACGTCG ((((((((.(.((((((((+)))))))).).))))))))”, 55 °C; for “CGACGTGCGGCATGTGCTG+CAGCACATGGGGCACGTCG ((((((((..(((((((((+)))))))))..))))))))”, 57.6 °C. For “CGACGTGCCTAATGTGCTG+CAGCACATGCTGCACGTCG ((((((((...((((((((+))))))))...))))))))” the value was 46.9 °C.

“CGACGTGCTCCATGTGCTG+CAGCACATAGAGCACGTCG ((((((((((.((((((((+)))))))).))))))))))”: the Tm was found to be 56.2 °C. For “CGACGTGCCTTATGTGCTG+CAGCACATATGGCACGTCG (((((((((.(((((((((+))))))))).)))))))))” the value was 57.9 °C. For “CGACGTGCTTAATGTGCTG+CAGCACATCAGGCACGTCG ((((((((.(.((((((((+)))))))).).))))))))” the value was 50.8 °C. For “CGACGTGCTTTATGTGCTG+CAGCACATCGGGCACGTCG ((((((((...((((((((+))))))))...))))))))”, the Tm came to 48.3 °C. For “CGACGTGCATTATGTGCTG+CAGCACATAAGGCACGTCG ((((((((.((((((((((+)))))))))).))))))))” the value was 56.7 °C; for “CGACGTGCCGGATGTGCTG+CAGCACATAGGGCACGTCG (((((((((..((((((((+))))))))..)))))))))”, 55.9 °C; for “CGACGTGCCATATGTGCTG+CAGCACATAGTGCACGTCG ((((((((..(((((((((+)))))))))..))))))))”, 47.1 °C.

In the case of “CGACGTGCTGCATGTGCTG+CAGCACATCTAGCACGTCG (((((((((..((((((((+))))))))..)))))))))”, the Tm is 52.4 °C. As for “CGACGTGCCTCATGTGCTG+CAGCACATATAGCACGTCG ((((((((...((((((((+))))))))...))))))))”, the Tm was found to be 48.8 °C. For “CGACGTGCCACATGTGCTG+CAGCACATTTGGCACGTCG ((((((((((.((((((((+)))))))).))))))))))” the value was 57.6 °C; for “CGACGTGCATAATGTGCTG+CAGCACATTTCGCACGTCG ((((((((..(((((((((+)))))))))..))))))))”, 51 °C. “CGACGTGCTAGATGTGCTG+CAGCACATACTGCACGTCG ((((((((...((((((((+))))))))...))))))))”: the Tm was determined as 50.9 °C.

With “CGACGTGCGTAATGTGCTG+CAGCACATTCTGCACGTCG ((((((((..(((((((((+)))))))))..))))))))”, the Tm stood at 53.4 °C.

With “CGACGTGCCTTATGTGCTG+CAGCACATAGGGCACGTCG (((((((((.(((((((((+))))))))).)))))))))”, the Tm came out at 57.7 °C.

“CGACGTGCGCGATGTGCTG+CAGCACATCCCGCACGTCG (((((((((.(((((((((+))))))))).)))))))))”: the Tm came out at 59.2 °C. With “CGACGTGCCTCATGTGCTG+CAGCACATGTAGCACGTCG ((((((((..(((((((((+)))))))))..))))))))”, the Tm worked out at 52.9 °C. In the case of “CGACGTGCCGCATGTGCTG+CAGCACATGACGCACGTCG ((((((((..(((((((((+)))))))))..))))))))”, the Tm amounted to 51.2 °C. As for “CGACGTGCTGCATGTGCTG+CAGCACATGCGGCACGTCG ((((((((.((((((((((+)))))))))).))))))))”, the Tm stood at 63 °C. Regarding “CGACGTGCACTATGTGCTG+CAGCACATGTGGCACGTCG ((((((((...((((((((+))))))))...))))))))”, the Tm was 48 °C. For “CGACGTGCTGCATGTGCTG+CAGCACATGAGGCACGTCG ((((((((..(((((((((+)))))))))..))))))))” the value was 56.8 °C. For “CGACGTGCCACATGTGCTG+CAGCACATGGCGCACGTCG ((((((((..(((((((((+)))))))))..))))))))” the value was 54 °C; for “CGACGTGCCTCATGTGCTG+CAGCACATGAAGCACGTCG ((((((((.((((((((((+)))))))))).))))))))”, 56.3 °C. “CGACGTGCCTGATGTGCTG+CAGCACATCAAGCACGTCG ((((((((.((((((((((+)))))))))).))))))))”: the Tm is 56.6 °C.

On to “CGACGTGCGCGATGTGCTG+CAGCACATCTAGCACGTCG ((((((((..(((((((((+)))))))))..))))))))”, for which the Tm turned out to be 55.5 °C.

Consider “CGACGTGCCTAATGTGCTG+CAGCACATAAAGCACGTCG ((((((((.(.((((((((+)))))))).).))))))))”, for which the Tm stood at 50.3 °C. In the case of “CGACGTGCAAAATGTGCTG+CAGCACATATGGCACGTCG ((((((((.(.((((((((+)))))))).).))))))))”, the Tm was determined as 50.3 °C. “CGACGTGCATCATGTGCTG+CAGCACATTAAGCACGTCG ((((((((.(.((((((((+)))))))).).))))))))”: the midpoint of thermal melting (Tm) was found to be 48.6 °C. For the substance “CGACGTGCCCTATGTGCTG+CAGCACATGGCGCACGTCG ((((((((.(.((((((((+)))))))).).))))))))”, the Tm came out at 52.9 °C. For “CGACGTGCGCCATGTGCTG+CAGCACATGGCGCACGTCG (((((((((((((((((((+)))))))))))))))))))” the value was 68.7 °C; for “CGACGTGCCGAATGTGCTG+CAGCACATAGAGCACGTCG ((((((((...((((((((+))))))))...))))))))”, 49.9 °C.
